This passage reports ADH aggregation (optical density results from patent US12655198B2.

The target of this experiment is alcohol dehydrogenase (ADH).

B1: CryS96 (αB-crystallin peptide fused with ELP S96) (protein)
chain: GDRFSVNLDVKHFSPEELKVKGVPGSGVPGSGVPGSGVPGSGVPGSGVPGSGVPGSGVPGSGVPGSGVPGSGVPGSGVPGSGVPGSGVPGSGVPGSGVPGSGVPGSGVPGSGVPGSGVPGSGVPGSGVPGSGVPGSGVPGSGVPGSGVPGSGVPGSGVPGSGVPGSGVPGSGVPGSGVPGSGVPGSGVPGSGVPGSGVPGSGVPGSGVPGSGVPGSGVPGSGVPGSGVPGSGVPGSGVPGSGVPGSGVPGSGVPGSGVPGSGVPGSGVPGSGVPGSGVPGSGVPGSGVPGSGVPGSGVPGSGVPGSGVPGSGVPGSGVPGSGVPGSGVPGSGVPGSGVPGSGVPGSGVPGSGVPGSGVPGSGVPGSGVPGSGVPGSGVPGSGVPGSGVPGSGVPGSGVPGSGVPGSGVPGSGVPGSGVPGSGVPGSGVPGSGVPGSGVPGSGVPGSGVPGSGVPGSGVPGSGVPGSGVPGSGVPGSGVPGSGVPGSGVPGSGVPGSGVPGSGY
In turn, B1 returned an ADH aggregation (optical density at 360 nm, 48° C., 2 h) (% decrease in ADH aggregation) of 61.
